What all share (experiment): BLI
The target of experiment [1] is PAD K122A (UniProt Q96QC0).
Experiment [2] deals with PAD M141F (UniProt Q96QC0).
For the next experiment, the target named is PAD K109A (UniProt Q96QC0).
A further experiment has as its target PAD K118A (UniProt Q96QC0).
Experiment [3] concerns the target PAD A114K (UniProt Q96QC0).
The target of experiment [4] is PAD M141W (UniProt Q96QC0).
For experiment [5], the target named is PAD K122A (UniProt Q96QC0). This is another data set of the same source.
The target in experiment [6] is PAD M141F (UniProt Q96QC0). This is another data set of the same source.
The target in experiment [7] is PAD A114K (UniProt Q96QC0). The source holds these as a separate data set.
The target in experiment [8] is PAD M141W (UniProt Q96QC0). This is another data set of the same source.

Where two headings read alike, the source gives them in different places.

Sequence of PAD A114K (Q96QC0 1-148 A114K): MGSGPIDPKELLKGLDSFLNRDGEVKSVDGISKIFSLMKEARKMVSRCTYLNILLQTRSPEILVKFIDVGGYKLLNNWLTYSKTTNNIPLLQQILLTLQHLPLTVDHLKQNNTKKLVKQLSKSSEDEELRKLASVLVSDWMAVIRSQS
Sequence of PAD M141F (Q96QC0 1-148 M141F): as the sequence (Q96QC0 1-148 A114K) above, with K114A, M141F counted along it
Sequence of PAD M141W (Q96QC0 1-148 M141W): as the sequence (Q96QC0 1-148 A114K) above, with K114A, M141W counted along it
Sequence of PAD K122A (Q96QC0 1-148 K122A): as the sequence (Q96QC0 1-148 A114K) above, with K114A, K122A counted along it
Sequence of PAD K109A (Q96QC0 1-148 K109A): as the sequence (Q96QC0 1-148 A114K) above, with K109A, K114A counted along it
Sequence of PAD K118A (Q96QC0 1-148 K118A): as the sequence (Q96QC0 1-148 A114K) above, with K114A, K118A counted along it

Broadly, the Kd is the concentration at which binding is half-saturated. Low readings indicate a tighter complex, high ones a looser complex. With “biotinyl-MB0 peptide (MYC 16-33) (from UniProt P01106-2 16-33)”, the Kd with PAD K122A [1] worked out at 35 µM; with PAD M141F [2], 19 µM; with PAD K109A, 27 µM; in the experiment with PAD K118A, 12 µM; in the experiment with PAD A114K [3] it was 52 µM; with PAD M141W [4], 24 µM. The Kd with PAD K122A [5] is 35 µM; with PAD M141F [6] it was 19 µM; in the experiment with PAD A114K [7] it was 52 µM; in the experiment with PAD M141W [8], 24 µM.

Values taken from doi:10.1101/2021.12.02.470928.
